{"source": "paper PMC6885686", "about": "“RRM adjacent TARDBP mutations disrupt RNA binding and enhance TDP-43 proteinopathy”", "target": "TDP-43 RRM1-2 WT (UniProt Q13148 102-269)", "sequence (Q13148 102-269)": "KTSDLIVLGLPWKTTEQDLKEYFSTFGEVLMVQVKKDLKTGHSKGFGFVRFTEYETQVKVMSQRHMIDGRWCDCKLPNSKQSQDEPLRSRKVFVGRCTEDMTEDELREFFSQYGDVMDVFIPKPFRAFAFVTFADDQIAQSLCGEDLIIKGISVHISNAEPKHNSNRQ", "experiment": "BLI; EMSA: 5 ug total lysate in RIPA with RNase inhibitor, 2 ug tRNA, 1 uM unlabelled (GU)x6 and 2.5 nM biotin-(GU)x6, 30 min room temperature, 6% native PAGE; BLI buffer not given in the material (protein purified in phosphate buffer pH 7.2)", "settings": "protein: recombinant; tags: 6xHis-SUMO removed by TEV"}
{"binder": "GUGUGAAUGAAU (ssRNA)", "note": "[AUG-RNA]", "values": [{"measurement": "Kd", "result": "3.2 ± 0.9", "unit": "nM"}]}
